Test results from patent US20160208226A1, “Transaminase Biocatalysts” (COMMONWEALTH SCIENTIFIC AND INDUSTRIAL RESEARCH ORGANISATION, priority 2013, published 2016).

What was measured:
[1] = Solubility of the substrates in the alanine dehydrogenase-coupled kinetic assay; format: physicochemical; settings: assay buffer; kinetic parameters cannot be determined
Text: (§1) The alanine dehydrogenase-coupled assay has been used to determine some early kinetic parameters for p6 and p7. Reactions with C3 to C8 for p6 and C4 to CS have been fully characterised and show no clear trend in terms of reaction rate vs. carbon chain length. For C11 and C12, the solubility of the substrates is extremely low, and as such, kinetic parameters cannot be determined.
as §1, with “all the aforementioned enzymes.” for “p6 and p7.”, “C8 for p7” for “CS”

[2] = Coupled dehydrogenase assays for transaminase activity of the Pseudomonas sp. proteins and ancestral reconstructions; format: biochemical; settings: for activity of ancestral reconstruction proteins in the coupled assays: E. coli expressed, purified proteins; for pH optimum: UV absorbance at 340 nm, pH range 7.5-10; for pH optimum / activity with ω-amino acids including long chain C11 and C12: 28° C.; for activity with ω-amino acids including long chain C11 and C12: 340 nm, pH 7.5-10
Method: Activity for each protein was assessed using coupled dehydrogenase assays as described previously. A typical assay comprised:
Substrate (6.25 mM final concentration in potassium phosphate buffer)
Co-substrate (pyruvate (0.5 mM final concentration) or α-KG (0.25 mM final concentration)
NAD (1.25 mM final concentration)
Dehydrogenase (1 μL from ADH-≧35 units/mL stock solution or GDH≧35 units/mg protein stock)
Transaminase (final concentration dependent)
Potassium phosphate buffer (100 mM)
UV absorbance at 340 nm was recorded at 28° C. over a pH range of 7.5-10 with a range of substrates.
Proteins encoded by p7N6, p7N15, p7N16, p7N17, p7N43 and p7N48 were expressed using an E. coli recombinant expression platform and subsequently purified.
Each of the proteins were assayed for substrate specificity. Substrates identified by assaying for each of the proteins are summarized below.

For `NCCCCCCCCCCC(=O)O` [C11, 11-aminoundecanoic acid], the “solubility of the substrates” value [1] was “extremely low”.

For `NCCCCCCCCCCCC(=O)O` [C12, 12-aminododecanoic acid], the “solubility of the substrates” value [1] was “extremely low”.

B1: p7N48: de novo peptide sequence based on p7, produced by ancestral reconstruction; SEQ ID NO:12 (protein)
chain: MTDTDDLLEMDRAHFFHPSTHLRDHASGELPGRIITGGKGIRIQDSEGREYIDAFAGLYCVNVGYGRTEIADAIYEQAKELAYYHTYVGHSNEPIIELSERIIREWAPAGMSKVYYGMSGSDANETQIKLVWYYNNVLGRPQKKKIISRQRGYHGSGIMTGSLTGLPAFHNHFDLPLEPIRHTTCPHYYRAPAGMSEAEFSRHCADELEKMILAEGPDTVAAFIGEPVMGTGGIVPPPEGYWEAIQAVLNKYDILLIADEVVCGFGRTGSMFGSHHYGMKPDLITVAKGLTSAYAPLSGVIVGEKVWKVLEQGSDQYGPIGHGWTYSGHPICAAAALANLDIIERENLTGNAADTGAYFQQRMRETFGDHPLVGEVRGVGLMAALEFVADKDKRTRFDPSLKVGPRVSAACLEDGMIARAMPHGDILGFAPPLVITRAEVDEIVDIAKQAVDAVADELV
modifications: Molecule produced by ancestral reconstruction
With B1 the “activity of ancestral reconstruction proteins in the coupled assays” value (“activity … in the coupled assays” below) [2] was “activity in accordance with p7”.

B2: p4: pyruvate: ω-amino acid transaminase from Pseudomonas sp., amino acid sequence SEQ ID NO:6 (protein, listed as Pseudomonas sp.)
chain: MTKQTSAQTQHWQALSREHHLAPFTDYKQLNEKGARIITKAEGVYLWDSEGNKILDGMAGLWCMNVGYGRKELAEVAYKQMLELPYYNLFFQTAHPPALELAKAIADIAPEGMNHVFFTGSGSESNDTVLRMVRHYWSIKGKPQKKVVIGRWNGYHGSTVAGVSLGGMKALHSQGDLPIPGIVHIAQPYWYGEGGDMSAEEFGVWAAEQLEKKILEVGEENVAAFIAEPIQGAGGVIVPPDTYWPKIREILAKYEILFIADEVICGFGRTGEWFGSQYYGNAPDLMPIAKGLTSGYIPMGGVIVRDEIVDTLNEGGEFYHGFTYSGHPVAAAVALENIRILREEKIVETVKAETAPYLQKRWQELADHPLVGEARGVGMVGALELVKNKKTRERFENGVGMLCREHCFRNGLIMRAVGDTMIISPPLVITKPEIDELITLARKCLDQTAAVALS
With B2 the pH optimum [2] was roughly 10 and the “activity with ω-amino acids including long chain C11 and C12” value ([2]; coupled dehydrogenase assay) was “shown the desired activity with ω-amino acids, notably including long chain amino acids C11 and C12”.

B3: p7N43: de novo peptide sequence based on p7, produced by ancestral reconstruction; SEQ ID NO:11 (protein)
chain: MTSLEQLLEMDRAHFMHPSTHAYDHASGALPGRIITGGKGIRIEDHEGREYIDAFAGLYCVNIGYGREEVADAIYEQAKQLAYYHTYVGHSNDPVIELSSRIIEDWAPAGMKKVFYGMSGSDANETQIKLVWYYNNVLGRPNKKKIIARERSYHGSGIVTGSLTGLPSFHQHFDLPIDRVKHTVCPHWYNAPPGMSEAQFVAYCVEELEKLIAREGADTIAAFIAEPVMGTGGIVPPPQGYWEAIQAVLRKHDILLIADEVVCGFGRLGSKTGSEHYGIKPDLITVAKGLTSAYAPLSAVIVSEKVWDVIEKGSREHGVMGHGWTYSGHPVCAAAALANLDILERENLTGNAADVGAYLQQRLHEAFGAHPLVGEVRGVGMLAALEFMADKGARTPFDPALKVSQKVAAAALEDGLIVRALPHGDILGFAPPLVTTRAEVDEIVAIAKEAFDEVADAVL
modifications: Molecule produced by ancestral reconstruction
In the case of B3, the “activity … in the coupled assays” value [2] is reported as “activity in accordance with p7”.

B4: p7N16: de novo peptide sequence based on p7, produced by ancestral reconstruction; SEQ ID NO:9 (protein)
chain: MQSLDQLFEMDRAHFMHPSTHAHDHASGALPGRIITGGKGIRIEDHEGREYIDAFAGLYCVNIGYGRTEVADAIYEQAKQLAYYHTYVGHSTDAIIELSSRIIRDWAPAGMKKVYYGMSGSDANETQIKLVWYYNNVLGRPNKKKIISRERGYHGSGIVTGSLTGLPSFHQHFDLPIDRVKHTVCPHWYRAPAGMSEAQFVAYCVEELEKLIAREGADTIAAFIAEPVMGTGGIIPPPQGYWEAIQAVLRKHDILLIADEVVCGFGRLGSKMGSQHYGIKPDLITVAKGLTSAYAPLSGVIVGEKVWDVIEKGSQEHGPMGHGWTYSGHPICAAAALANLDILERENLTGNAADVGAYLQQRLHEAFGAHPLVGEVRGVGMLAALEFMADKDARTPFDPALKVGPKVSAAALEDGMIARAMPHGDILGFAPPLVTTRAEVDEIVGIAKQAVDEVADEVL
modifications: Molecule produced by ancestral reconstruction
In the case of B4, the “activity … in the coupled assays” value [2] is reported as “activity in accordance with p7”.

B5: p7: pyruvate: ω-amino acid transaminase from Pseudomonas sp., amino acid sequence SEQ ID NO:2 (protein, listed as Pseudomonas sp.)
chain: MGSSHHHHHHSSGLVPRGSHMTDYAKLFEQDRAHFMHPSTHAHDHASGALPGRIITGASGVRIRDHQGRELLDAFAGLYCVNIGYGRLEVADAIHEQAKQLAYYHTYVGHASEAIIELSARIIRDWAPAGMKKVYYGLSGSDANETQVKLVRYYNNVLGRPQKKKIISRQRGYHGSGIVTGSLTGLASFHQHFDLPVEGVKHTLCPHFYKAPAGMDEAAFVRHCAQELENLILAEGPDTVAAFIGEPVMGTGGIIVPPKGYWEAIQAVLAKYDVLLIADEVVCAFGRLGDKMGSQRHAMRPDLITTAKGLTSAYAPLSAVIVGEKVWDVIDSASTREGAMGHGWTYSGHPICAAAALANLDILERENITANAADVGGYLNQQLRQAFEGHPLVGEVRGDGMLAALEFMADREARTPFDAALKVGPKVSAACLERGMIARAMPHGDILGFAPPLVLSRAEADEVVGIAKAAVDAVAAEVL
For B5, the pH optimum [2] was roughly 10, the smallest substrate accepted ([2]; coupled dehydrogenase assay) was “C4 (γ-aminobutyrate; GABA)” and the “activity with ω-amino acids including long chain C11 and C12” value ([2]; coupled dehydrogenase assay) was “shown the desired activity with ω-amino acids, notably including long chain amino acids C11 and C12”.

B6: p7N15: de novo peptide sequence based on p7, produced by ancestral reconstruction; SEQ ID NO:8 (protein)
chain: MTDLDQLFEMDRAHFMHPSTHAHDHASGALPGRIITGGKGIRIQDHEGREYIDAFAGLYCVNIGYGRTEVADAIYEQAKELAYYHTYVGHSTEAIIELSSRIIRDWAPAGMKKVYYGMSGSDANETQIKLVWYYNNVLGRPQKKKIISRQRGYHGSGIMTGSLTGLPSFHQHFDLPIERIKHTVCPHWYKAPAGMSEAQFVRYCADELEKLILAEGPDTVAAFIGEPVMGTGGIIPPPQGYWEAIQAVLNKYDILLIADEVVCGFGRLGSKMGSQHYGMKPDLITVAKGLTSAYAPLSGVIVGEKVWDVIEKGSQEHGPMGHGWTYSGHPICAAAALANLDILERENLTGNAADVGAYLQQRLRETFGGHPLVGEVRGVGMLAALEFMADKDARTPFDPALKVGPKVSAACLEDGMIARAMPHGDILGFAPPLVITRAEVDEIVGIAKQAVDEVADEVL
modifications: Molecule produced by ancestral reconstruction
For B6, the “activity … in the coupled assays” value [2] was “activity in accordance with p7”.

B7: p7N17: de novo peptide sequence based on p7, produced by ancestral reconstruction; SEQ ID NO:10 (protein)
chain: MTSLDQLFEEDRAHFMHPSTHAHDHASGALPGKIVTGGKGIRIEDHQGREYIDAFAGLYCVNIGYGRTEVADAIYEQAKQLAYYHTYVGHSTDAIIELSSRIIRDWAPAGMKKVYYGMSGSDANETQIKIVWYYNNVLGRPNKKKIISRERGYHGSGIVTGSLTGLPSFHQHFDLPIDRVKHTVCPHWYKAPAGMSEAQFVAYCVEELEKLIAREGADTIAAFIAEPVMGTGGIIAPPQGYWEAIQAVLRKHDILLISDEVVCGFGRLGSKMGAQHYGIKPDLITVAKGLTSAYAPLSGVIVGEKVWDVIEKGSQEHGPMGHGWTYSGHPICAAAALANLDILERENLTGNAADVGAYLQQRLHEAFGAHPLVGEVRGVGMLAALEFMADKDARTPFDPALKVGPKVSAAALEDGVIARAMPHGDILGFAPPLVTTRAEVDEIVGIVKQAVDEVADEVL
modifications: Molecule produced by ancestral reconstruction
For B7, the “activity … in the coupled assays” value [2] was “activity in accordance with p7”.

B8: p7N6: de novo peptide sequence based on p7, produced by ancestral reconstruction; SEQ ID NO:7 (protein)
chain: MTDFDQLFEQDRAHFMHPSTHAHDHASGALPGRIITGASGIRIRDHEGRELIDAFAGLYCVNIGYGRTEVADAIYKQAKELAYYHTYVGHSTEAIIELSSRIIRDWAPAGMKKVYYGLSGSDANETQIKLVRYYNNVLGRPQKKKIISRQRGYHGSGIMTGSLTGLPSFHQHFDLPVEGIKHTVCPHWYKAPAGMDEAAFVRYCADELEKLILAEGPDTVAAFIGEPVMGTGGIIVPPKGYWEAIQAVLNKYDVLLIADEVVCAFGRLGSKMGSQRYGMRPDLITTAKGLTSAYAPLSAVIVGEKVWDVIEKASQKEGAMGHGWTYSGHPICAAAALANLDILERENLTANAADVGAYLNQRLRETFEGHPLVGEVRGDGMLAALEFMADREARTPFDPALKVGPKVSAACLEDGMIARAMPHGDILGFAPPLVLTRAEADEIVGIAKAAVDEVAGEVL
modifications: Molecule produced by ancestral reconstruction
With B8 the “activity … in the coupled assays” value [2] was “activity in accordance with p7”.
